Measurements as given in patent US9056102B2, “VEGF-activated trail ligands” (The Regents of the University of California, priority 2005, dated 2015).

What was measured:
[1] = test system: U87MG human glioblastoma cells; experiment: Potentiation of R2FasL by chemotherapeutic agents, resazurin cell viability assay; type: cell-based; conditions: 72 hours drug (Bis VIII 1 μM, camptothecin 20 nM, etoposide 5 μM), then R2FasL 10 μL/well for 40 hours
[2] = test system: U87MG human glioblastoma cells; experiment: Potentiation of R2FasL by chemotherapeutic agents, LDH release assay; conditions: 72 hours drug (Bis VIII 1 μM, camptothecin 20 nM, etoposide 5 μM), then R2FasL 10 μL/well for 40 hours
Method: To determine if the activity of R2FasL can be potentiated by chemotherapeutic agents, the following experiments were performed. U87MG human glioblastoma cells were plated in 96-well plates in 100 μL of complete medium with 10% fetal calf serum at 25,000 cells/well. Forty-eight hours later cells were treated with either bisindolylmaleimide VIII (Bis VIII, final concentration 1 μM), camptothecin (final concentration 20 nM), etoposide (final concentration 5 μM), or DMSO vehicle (1 μL/well). Bis VIII, camptothecin, and etoposide (all from Biomol) were dissolved in DMSO and added at 1 μL/well. After 72 hours of drug exposure, cells were treated with FLAG antibody affinity-purified R2FasL solution (10 μL/well), and incubated for an additional 40 hours. Cell viability and cytotoxicity were assayed using the resazurin assay and the LDG release assay, respectively, as described above.

[3] = test system: Human umbilical vein endothelial cells (HUVEC); experiment: Macrovascular endothelial cell viability, resazurin assay; type: cell-based; conditions: serum-starved, 10 μL/well conditioned medium, with 2 nM rhVEGF-165, 22 hours
Method: R2FasL may be differentially active in tumor endothelial cells (microvascular) and less toxic to normal macrovascular endotherlial cells, such as arteries and veins. […] Twenty-four hours later serum starvation was begun (to sensitize cells to death signals) by withdrawing serum. After fifteen hours of serum starvation cells were treated Cos7 cell conditioned medium containing R2FasL (10 μL/well) in the absence or presence of rh VEGF-165 (final concentration 2 nM). After 22 hours of treatment with R2FasL±rhVEGF cell viability was assayed using the resazurin assay as described herein. No effect of R2FasL+VEGF was seen on these macrovascular endothelial cells (FIG. 20A).

[4] = test system: U87MG human glioblastoma cells; experiment: LDH release cytotoxicity assay in glioblastoma cells; type: cell-based; conditions: FLAG-purified R2FasL solution 0-10 μL/well, 24 hours
Method: R2FasL solution (0, 0.01, 0.1, 1, or 10 μL), purified by FLAG epitope tag affinity chromatography, was then added to each well (FIG. 17A). In addition, each well received 300 ng of neutralizing anti-VEGF antibody, neutralizing anti-FasL antibody, or control goat Ig (all from R&S Systems). Twenty-four hours later the cells were assayed for cytotoxicity using the LDH release assay (Roche), in which 10 μL of cell supernatant is mixed with 100 μL LDH reaction mixture in a total reaction volume of 200 μL. Cytotoxicity was assayed spectrophotometrically by measuring absorbance at 492 nm.

[5] = test system: DU145 human prostate cancer cells; experiment: LDH release cytotoxicity assay in prostate cancer cells; type: cell-based; conditions: Cos7 conditioned medium with R2FasL, 34 hours
Method: DU145 human prostate cancer cells were plated in 24-well plates in 500 μL of complete medium with 10% fetal calf serum and allowed to grow for 54 hours without change of medium. Conditioned medium from Cos7 cells transfected with either pFLAG/R2FasL or empty pFLAG vector was added in the indicated volumes. After 34 more hours cytotoxicity was assayed using the LDH release assay as described above.

[6] = test system: U373 human glioblastoma cells; experiment: LDH release cytotoxicity assay in Fas-resistant glioblastoma cells; type: cell-based; conditions: Cos7 conditioned medium with R2FasL, 36 hours; cells resistant to Fas receptor-mediated killing
Method: To investigate the specificity of the R2FasL activity on U87MG glioblastoma cells, the cytotoxic effect of R2FasL on the U373 glioblastoma cell line, was analyzed. […] Conditioned medium from Cos7 cells transfected with pFLAG/R2FasL vector was added in the indicated volumes. After 36 more hours cytotoxicity was assayed using the LDH release assay as described herein (FIG. 17D).

[7] = test system: Jurkat E6.1 human T cells; experiment: Jurkat cell viability, resazurin (AlamarBlue) assay; type: cell-based; conditions: 1 μL/well conditioned medium, rhVEGF-165 or rmVEGF-165 0.001-10 nM, 18 hours
Method: Conditioned medium (0.001, 0.01, 0.1, 1, or 10 μL) from Cos7 cells transfected with pFLAG/R1[D2]FasL vector was added in the absence or presence of rhVEGF-165 (final concentration 2 nM). Twenty-two hours later cell viability was assayed using the resazurin assay (AlamarBlue reagent from BioSource). Conversion of AlamarBlue substrate to product by viable cells was determined by adding 20 μL of AlamarBlue to each well and measuring absorbance at 540 nm and […]. Calculation of % conversion of substrate to product was performed according to the manufacturer's protocol.
To investigate which growth factors activate R1[D2]FasL the following experiment was performed. […] All growth factors were used at a final concentration of 10 nM, and were from Peprotech or R&D Systems. Nineteen hours later cell viability was assayed using the resazurin assay as described above.
In a similar experiment, the concentration of the growth factors tested was varied. […] Conditioned medium from Cos7 cells transfected with either pFLAG/R2FasL vector or empty pFLAG vector was added (1 μL/well), in the absence or presence of rhVEGF-165 or rmVEGF-165 at the final concentrations of 0.001, 0.01, 0.1, 1, and 10 nM. Eighteen hours later cell viability was assayed using the resazurin assay as described herein.
To determine the ED50 for hVEGF-165 on R1[D2]FasL the following experiment was performed. […] Conditioned medium from Cos7 cells transfected with pFLAG/R1[D2]FasL vector was added (2 μL/well), in the absence or presence of rhVEGF-165 at 0, 0.01, 0.1, 1, 10, 100, 1,000, or 10,000 nM. Nineteen hours later cell viability was assayed using the resazurin assay as described above.
In a similar experiment the ED50 for hVEGF-165 on R2FasL was determined. […] Conditioned medium from Cos7 cells transfected with pFLAG/R2FasL vector was added in the volumes indicated, in the absence or presence of rhVEGF-165 at the final concentrations of […], 0.2 and 2 nM. Eighteen hours later cell viability was assayed using the resazurin assay. The ED50 for rhVEGF-165 was between 20 pM and 200 pM (FIG. 21B).

[8] = test system: Bovine adrenal cortical endothelial cells; experiment: Microvascular endothelial cell cytotoxicity, LDH release assay; type: cell-based; conditions: 2 μL/well conditioned medium, with 2 nM rhVEGF-165, 24 hours
Method: Twenty-two hours later conditioned medium from Cos7 cells transfected with either pFLAG/R2FasL or empty pFLAG vector was added (2 μL/well), in the absence or presence of rhVEGF-165 (final concentration 2 nM). Twenty-four hours later cytotoxicity was assayed using the LDH release assay as described above.

[9] = test system: U87MG human glioblastoma cells; experiment: Cell death in glioblastoma cells, Trypan blue cell counting; type: cell-based; conditions: Cos7 conditioned medium with R2FasL, 36 hours
Method: To investigate if R2FasL induces apoptosis in human glioblastoma the following experiment was performed. […] Twenty-four hours later conditioned medium from Cos7 cells transfected with either pFLAG/R2FasL or empty pFLAG vector was added (FIG. 17B). The concentration of R2FasL was determined separately by quantitative immunoblotting using commercially produced rhsFasL as standard (R&S Systems). After 36 more hours, cells were trypsinized, stained with Trypan blue, and counted on a hemocytometer. Data in FIG. 17B are shown as mean±SEM.

| Molecule | potentiation of R2FasL apoptotic activity (cell viability) [1] | potentiation of R2FasL cytotoxic activity (LDH release) [2] | effect of R2FasL+VEGF on cell viability [3] | cytotoxicity (LDH release) [4] | cytotoxicity (LDH release) [5] | cytotoxicity (LDH release) [6] | activation by human and mouse VEGF-165 (cell viability) [7] | cytotoxicity (LDH release) of R2FasL and VEGF [8] | cell death (cell count) [9] |
| --- | --- | --- | --- | --- | --- | --- | --- | --- | --- |
| CC[C@@]1(O)C(=O)OCc2c1cc1n(c2=O)Cc2cc3ccccc3nc2-1 [camptothecin] | Potentiation of R2FasL apoptotic activity | Potentiation of R2FasL cytotoxic activity | – | – | – | – | – | – | – |
| R2FasL: FLAG epitope-tagged VEGFR2/FasL fusion protein expressed from pFLAG/R2FasL; apparently the FLAG-tagged form of FlkFasL (protein, left off: small tags and cut ends, apparently the FLAG-tagged form of FlkFasL) AASVGLPGDFLHPPKLSTQKDILTILANTTLQITCRGQRDLDWLWPNAQRDSEERVLVTECGGGDSIFCKTLTIPRVVGNDTGAYKCSYRDVDIASTVYVYVRDYRSPFIASVSDQHGIVYITENKNKTVVIPCRGSISNLNVSLCARYPEKRFVPDGNRISWDSEIGFTLPSYMISYAGMVFCEAKINDETYQSIMYIVVVVGYRIYDVILSPPHEIELSAGEKLVLNCTARTELNVGLDFTWHSPPSKSHHKKIVNRDVKPFPGTVAKMFLSTLTIESVTKSDQGEYTCVASSGRMIKRNRTFVRVHTKPFIAFGSARGTSEKKELRKVAHLTGKSNSRSMPLEWEDTYGIVLLSGVKYKKGGLVINETGLYFVYSKVYFRGQSCNNLPLSHKVYMRNSKYPQDLVMMEGKMMSYCTTGQMWARSSYLGAVFNLTSADHLYVNVSELSLVNFEESQTFFGLYKL | – | – | No effect | induces cytotoxicity | induces cytotoxicity | does not induce cytotoxicity | human and mouse VEGF-165 similarly activate R2FasL | induce cytotoxicity | induces cell death |
